Reference: patent US20240165226A1, “COMBINATION TREATMENT OF CD38-EXPRESSING TUMORS” (GENMAB A/S, priority 2006, published 2024)

What was measured:
[1] = tested on: fresh multiple myeloma tumor cells; experiment: ADCC (51Cr release) of fresh multiple myeloma tumor cells; type: cell-based, human; settings: in words
Procedure: Daudi-luc cells, fresh multiple myeloma tumor cells, fresh Plasma Cell Leukemia tumor cells and JK6L and AMO-1 multiple myeloma cells were collected (5×10^6 cells) in RPMI^++ (RPMI 1640 culture medium supplemented with 10% cosmic calf serum (HyClone, Logan, UT, USA)), to which 100 μCi ^51Cr (Chromium-51; Amersham Biosciences Europe GmbH, Roosendaal, The Netherlands) was added, and the mixture was incubated in a 37° C. water bath for 1 hr. After washing of the cells (twice in PBS, 1500 rpm, 5 min), the cells were resuspended in RPMI^++ and counted by trypan blue exclusion. Cells were brought at concentration of 1×10^5 cells/ml.
Fresh peripheral blood mononuclear cells (healthy volunteers, UMC Utrecht, Utrecht, The Netherlands) were isolated from 40 ml of heparin blood by Ficoll (Bio Whittaker; lymphocyte separation medium, cat 17-829E) according to the manufacturer's instructions. After resuspension of cells in RPMI^++, cells were counted by trypan blue exclusion and brought at concentration of 1×10^7 cells/ml.
50 μl of ^51Cr-labeled targets cells were pipetted into 96-well plates, and 50 μl of antibody was added, diluted in RPMI^++ (final concentrations 10, 1, 0.1, 0.01 μg/ml). […] After spinning down cells (1500 rpm, 5 min), 100 μl of supernatant was harvested into micronic tubes, and counted in gamma counter. The percentage specific lysis was calculated as follows: […]

Daudi-luc tumor cells = experiment: In vivo SCID-luciferase experiments; parameters: species or system SCID mice
From the text: In this model tumor cells are transfected with firefly luciferase. Upon administration of luciferin (Molecular Probes, Leiden, The Netherlands) to the mice the labeled cells can be detected in vivo by bioluminescent imaging using a highly sensitive CCD camera, cf. Wetterwald et al., American Journal of Pathology 160(3), 1143-1153 (2002).
Daudi cells were transfected with gWIZ luciferase from Gene Therapy Systems (San Diego, CA) and cultured in RPMI with 10% FCS, Pen/Strep, Sodium Pyruvate and 1 μg/ml puromycin (Sigma). Cells were analysed for luciferase expression (expressed in RLU/1×10^5 cells) in a luminometer and for CD38 expression by FACS. 2.5×10^6 luciferase-transfected Daudi cells/mouse were injected i.v. into SCID mice. Mice were treated with -003, -005, isotype control antibody (HuMab-KLH) or rituximab (anti-CD20 antibody). Antibodies were injected intraperitoneally. Four treatment settings were used (see Table 4). In the preventive setting, antibody (100 μg/mouse) and cells were administered simultaneously. In therapeutic setting I, antibody (300 μg/mouse) was administered 7 days after administration of cells. In therapeutic setting II, antibody (10 μg/mouse) was administered 14 days after administration of cells. In therapeutic setting III, antibody (100 μg/mouse) was administered 7 days after administration of cells. For imaging, mice were anesthetized by i.p. injection of a mixture of ketamine/xylazine/atropine. Synthetic D-Luciferin (sodium salt, Molecular Probes) was given i.p. at a dose of 25 mg/ml. Mice were then placed in a light tight box and after 3 min, imaging was started using a VersArray 1300B liquid nitrogen cooled CCD detector (Roper Scientific). Photons emitted from the luciferase were counted over an exposure period of 5 min. Under illumination black and white images were made for reference. MetaVue software (Universal Imaging Corp) was used for data collection and image analysis. Statistical significance of differences between groups was established using one-way analysis of variance with a Newman-Keuls post test using GraphPad PRISM version 3.02 (Graphpad Software Inc).

[2] = biological target: T1, CD38-transfected CHO (CHO-CD38) cells (Homo sapiens, UniProt P28907); experiment: Binding to CD38-transfected CHO cells by flow cytometry; settings: for binding to CHO-CD38 cells: in words
T1 construct: expressed in transfected cells; host or cells: CHO cells
Procedure: After harvesting and counting, Daudi-luc cells, CHO cells transfected with CD38 and control CHO cells were resuspended in PBS (1×10^6 cells/ml). Then, cells were put in 96-well V-bottom plates (100 μl/well) and washed twice in PBS-BSA (PBS supplemented with 0.1% BSA and 0.02% Na-azide). Thereafter, 50 μl antibody solution in PBS-BSA was added to the cells (4° C., 30 min). After washing three times in PBS-BSA, 50 μl (1:400 dilution) of rabbit anti-human IgG-FITC in PBS-BSA was added (4° C. in the dark, 30 min). Cells were washed three times and specific binding of CD38-antibodies to CHO-CD38 and Daudi-luc cells was detected by flow cytometry. HuMab-KLH (a human monoclonal antibody against KLH (keyhole limpet haemocyanin) generated by Genmab B.V., Utrecht, The Netherlands by use of the immunization protocols described elsewhere herein) was used as a control. […] No binding to control CHO cells is observed (data not shown).

[3] = biological target: T2, His-tagged extracellular domain of human CD38 (Homo sapiens, UniProt P28907); experiment: Enzymatic activity of recombinant CD38 (cGDPR production); type: biochemical; settings: for cGDPribose production / reduced production of cGDPR: after 90 minutes; for inhibitory effect on the production of cGDPR: recombinant His-CD38
T2 construct: poly-His-tag (N); made in house; secreted into culture supernatant
Procedure: The enzymatic activity of human CD38 was measured in an assay essentially as described in Graeff et al., J. Biol. Chem. 269, 30260-30267 (1994). Briefly, substrate NGD^+ (80 μM) was incubated with CD38 (0.6 μg/ml His-tagged extracellular domain of human CD38, see Example 3 regarding purification of His-CD38) in a buffer containing 20 mM Tris-HCl, pH 7.0. The production of cGDPR can be monitored spectrophotometrically at the emission wavelength of 410 nm (excitation at 300 nm). In this example an excitation filter of 340±60 nm and an emission filter of 430±8 nm was used.
To test the effect of -003, -005 and -024 on the enzymatic activity of CD38, recombinant His-CD38 protein was pre-incubated for 15 min at room temperature with various concentrations (30, 3, 0.3 and 0.03 μg/ml) of the different antibodies before adding the substrate NGD^+. The production of cyclic GDP-ribose (cGDPR) was recorded at different time points after addition of […] (3, 6, 9, 12, 30, 45, 60, 75 and 90 min).

| Molecule | ADCC of fresh multiple myeloma tumor cells [1] | inhibition of growth of tumor cells (Daudi-luc tumor cells; preventive setting, 100 μg/mouse, day 0, i.p.) | inhibition of growth of tumor cells (Daudi-luc tumor cells; therapeutic setting I, 300 μg/mouse, day 7, i.p.) | EC50 CHO-CD38 ([2]; binding, flow cytometry) [µg/mL] | binding to CHO-CD38 cells [2] | cGDPribose production ([3]; 0.03 μg/ml antibody) | cGDPribose production ([3]; 0.3 μg/ml antibody) | cGDPribose production ([3]; 3 μg/ml antibody) | reduced production of cGDPR ([3]; 3 μg/ml) [%] | cGDPribose production ([3]; 30 μg/ml antibody) | reduced production of cGDPR ([3]; 30 μg/ml) [%] | inhibitory effect on the production of cGDPR [3] | inhibition of Daudi-luc tumor cell growth (Daudi-luc tumor cells; therapeutic setting III, 100 μg/mouse, day 7, i.p.) |
| --- | --- | --- | --- | --- | --- | --- | --- | --- | --- | --- | --- | --- | --- |
| -005: human monoclonal IgG1 anti-CD38 antibody, VL region SEQ ID No:12 and VH region SEQ ID No:17 | ADCC is induced | inhibit growth of tumor cells | inhibit growth of tumor cells | 0.23 | bind | 102 % of NGD control | 98 % of NGD control | 66 % of NGD control | 34 | 68 % of NGD control | 32 | pronounced inhibitory effect |  |
| -024: human monoclonal IgG1 anti-CD38 antibody, VL region SEQ ID No:22 and VH region SEQ ID No:27 (antibody, listed as Homo sapiens, V domains shown) VH: EVQLVQSGAEVKKPGESLKISCKGSGYSFSNYWIGWVRQMPGKGLEWMGIIYPHDSDARYSPSFQGQVTFSADKSISTAYLQWSSLKASDTAMYYCARHVGWGSRYWYFDLWGRGTLVTVSS VL: EIVLTQSPATLSLSPGERATLSCRASQSVSSYLAWYQQKPGQAPGLLIYDASNRASGIPARFSGSGSGTDFTLTISSLEPEDFAVYYCQQRSNWPLTFGGGTKVEIK | ADCC is induced |  |  |  | bind | 105 % of NGD control | 104 % of NGD control | 100 % of NGD control |  | 99 % of NGD control |  | No inhibitory effect | clear inhibition |
